Results: paper PMC9508527, “Two-component carnitine monooxygenase from Escherichia coli: functional characterization, inhibition and mutagenesis of the molecular interface” (Bioscience Reports, 2022)
Numbering of substitutions follows the chain as printed.

Experiments:
Assay in all cases: cell-based or functional assay
YeaW variant R83K = molecular target: T1, YeaW variant R83K (E. coli, UniProt P0ABR7 1-374, R83K)
T1 sequence (looked up): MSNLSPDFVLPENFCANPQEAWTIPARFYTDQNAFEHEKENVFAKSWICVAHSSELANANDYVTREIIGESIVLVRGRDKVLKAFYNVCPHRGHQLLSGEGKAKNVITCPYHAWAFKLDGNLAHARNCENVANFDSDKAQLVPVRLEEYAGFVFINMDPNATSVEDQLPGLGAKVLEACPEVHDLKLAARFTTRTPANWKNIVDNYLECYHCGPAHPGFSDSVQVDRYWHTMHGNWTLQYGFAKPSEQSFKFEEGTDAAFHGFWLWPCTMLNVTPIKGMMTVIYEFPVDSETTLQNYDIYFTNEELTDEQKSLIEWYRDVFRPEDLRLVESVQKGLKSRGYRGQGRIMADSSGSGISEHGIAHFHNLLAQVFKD

YeaW variant D221S = molecular target: T2, YeaW variant D221S (E. coli, UniProt P0ABR7 1-374, D221S)
T2 sequence (looked up): T1 sequence (looked up) with K83R, D221S

YeaW variant D135S = molecular target: T3, YeaW variant D135S (E. coli, UniProt P0ABR7 1-374, D135S)
T3 sequence (looked up): T1 sequence (looked up) with K83R, D135S

YeaW variant K117E = molecular target: T4, YeaW variant K117E (E. coli, UniProt P0ABR7 1-374, K117E)
T4 sequence (looked up): T1 sequence (looked up) with K83R, K117E

YeaW variant K138E = molecular target: T5, YeaW variant K138E (E. coli, UniProt P0ABR7 1-374, K138E)
T5 sequence (looked up): T1 sequence (looked up) with K83R, K138E

YeaW variant E330S = molecular target: T6, YeaW variant E330S (E. coli, UniProt P0ABR7 1-374, E330S)
T6 sequence (looked up): T1 sequence (looked up) with K83R, E330S

YeaW variant K104S = molecular target: T7, YeaW variant K104S (E. coli, UniProt P0ABR7 1-374, K104S)
T7 sequence (looked up): T1 sequence (looked up) with K83R, K104S

B1: YeaX, reductase component of carnitine monooxygenase from E. coli (enzyme, UniProt P76254 1-321, looked up)
chain: MSDYQMFEVQVSQVEPLTEQVKRFTLVATDGKPLPAFTGGSHVIVQMSDGDNQYSNAYSLLSSPHDTSCYQIAVRLEENSRGGSRFLHQQVKVGDRLTISTPNNLFALIPSARKHLFIAGGIGITPFLSHMAELQHSDVDWQLHYCSRNPESCAFRDELVQHPQAEKVHLHHSSTGTRLELARLLADIEPGTHVYTCGPEALIEAVRSEAARLDIAADTLHFEQFAIEDKTGDAFTLVLARSGKEFVVPEEMTILQVIENNKAAKVECLCREGVCGTCETAILEGEADHRDQYFSDEERASQQSMLICCSRAKGKRLVLDL
L-carnitine depletion activity (wild type = 100%) (YeaW variant R83K): 76% | O2 depletion activity (wild type = 100%) (YeaW variant R83K): 79% | L-carnitine depletion activity (wild type = 100%) (YeaW variant D221S): 91% | O2 depletion activity (wild type = 100%) (YeaW variant D221S): 99% | L-carnitine depletion activity (wild type = 100%) (YeaW variant D135S): 106% | O2 depletion activity (wild type = 100%) (YeaW variant D135S): 106% | L-carnitine depletion activity (wild type = 100%) (YeaW variant K117E): 63% | O2 depletion activity (wild type = 100%) (YeaW variant K117E): 75% | L-carnitine depletion activity (wild type = 100%) (YeaW variant K138E): 100% | O2 depletion activity (wild type = 100%) (YeaW variant K138E): 102% | L-carnitine depletion activity (wild type = 100%) (YeaW variant E330S): 92% | O2 depletion activity (wild type = 100%) (YeaW variant E330S): 85% | L-carnitine depletion activity (wild type = 100%) (YeaW variant K104S): 70% | O2 depletion activity (wild type = 100%) (YeaW variant K104S): 66%
